# Molecular target: T1, OB-R (Homo sapiens, UniProt P48357)
# T1 construct: The cytoplasmic domain and full-length human OB-R was cloned by PCR; expressed in transfected cells; host or cells: COS-7
# T1 sequence (P48357 22-1165): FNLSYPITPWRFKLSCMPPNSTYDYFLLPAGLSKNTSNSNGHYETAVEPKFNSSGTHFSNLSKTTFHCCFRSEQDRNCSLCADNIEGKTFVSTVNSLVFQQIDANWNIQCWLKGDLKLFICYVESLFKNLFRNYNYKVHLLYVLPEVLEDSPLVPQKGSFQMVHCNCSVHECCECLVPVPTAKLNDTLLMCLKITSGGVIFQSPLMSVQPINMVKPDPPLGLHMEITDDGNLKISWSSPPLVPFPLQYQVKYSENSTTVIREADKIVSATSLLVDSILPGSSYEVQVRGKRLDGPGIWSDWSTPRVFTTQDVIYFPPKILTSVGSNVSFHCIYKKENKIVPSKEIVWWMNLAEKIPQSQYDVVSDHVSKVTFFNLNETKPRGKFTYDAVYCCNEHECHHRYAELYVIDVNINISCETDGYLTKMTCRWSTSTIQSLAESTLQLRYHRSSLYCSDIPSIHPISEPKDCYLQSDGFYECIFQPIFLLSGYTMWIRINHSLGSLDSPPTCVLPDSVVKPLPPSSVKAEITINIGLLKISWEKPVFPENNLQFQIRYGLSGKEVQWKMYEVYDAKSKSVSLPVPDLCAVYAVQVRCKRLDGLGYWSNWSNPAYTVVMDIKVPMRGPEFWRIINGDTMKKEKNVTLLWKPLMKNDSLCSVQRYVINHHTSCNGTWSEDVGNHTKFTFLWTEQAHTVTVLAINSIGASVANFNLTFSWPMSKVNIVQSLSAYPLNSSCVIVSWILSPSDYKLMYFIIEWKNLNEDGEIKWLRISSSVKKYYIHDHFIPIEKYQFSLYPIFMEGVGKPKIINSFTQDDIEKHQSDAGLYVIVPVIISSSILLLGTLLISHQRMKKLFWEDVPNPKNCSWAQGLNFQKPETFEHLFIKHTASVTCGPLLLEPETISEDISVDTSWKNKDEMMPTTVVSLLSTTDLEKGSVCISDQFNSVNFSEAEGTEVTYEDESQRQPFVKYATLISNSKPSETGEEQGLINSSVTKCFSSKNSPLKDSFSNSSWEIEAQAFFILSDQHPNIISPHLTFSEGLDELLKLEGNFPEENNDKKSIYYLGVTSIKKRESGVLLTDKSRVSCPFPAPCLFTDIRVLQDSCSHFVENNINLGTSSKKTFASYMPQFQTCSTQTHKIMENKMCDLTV
# Experiment: Luciferase reporter gene assay (3(G3)-Cy6-LUC), leptin stimulation of COS cells expressing wild type OB-R
# Type: cell-based
# Details: 100 ng/ml leptin for 24 hours, stimulated vs non-stimulated
# Procedure: The cytoplasmic domain and full-length human OB-R was cloned by PCR using human fetal liver and adipocyte cDNA (Clontech) and cloned into the expression vectors pCMX and pMT21. Chimeric receptors were constructed by fusing the extracellular domain and transmembrane domain of TrkC (amino acids 1 to 458) to the cytoplasmic domain of OB-R (amino acids 865-1165). A triple myc epitope tag was added at the C-terminus of all OB-R constructs (18). Truncation and point mutant constructs were generated by PCR and the sequences of all constructs were verified. Expression constructs were transfected into COS-7 cells using lipofectamine (GIBCO-BRL); 36-48 hours after transfection, cells were starved for either 2 hour,s for chimeric receptors or overnight for full-length receptors prior to stimulation.
# Expression constructs (1 μg) for OB-R, OB-RY1141F, OB-RY986F, OB-RY1078, 1079F, and OB-RY986, 1141F were co-transfected with 1 μg of 3(G3)-Cy6-LUC and 0.1 μg of pCMX.LacZ into COS-7 cells (6-well dishes) using lipofectamine. The day after transfection, media was changed to serum-free OptiMEM (GIBCO-BRL) and then treated with 100 ng/ml murine leptin (PeproTech) or human leptin (R&D Systems) for 24 hours. […] Luciferase and β-galactosidase activities were measured in cell lysates (30) and luciferase activity was normalized to β-galactosidase activity to control for transfection differences. […]
substance,measurement,value
"leptin: the product of the obese gene, secreted by adipocytes; ligand of OB-R",induction of luciferase activity,6 fold

# From patent publication US20020012949A1, “Assay systems for leptin-enhancing agents” (priority 1997, published 2002)
